In the DeepSol protein solubility set:

Assay: soluble on expression in E. coli; label from the status in PepcDB or PDB records

Row | Sequence | soluble on expression in E. coli
1 | MGSDKIHHHHHHMSQSMVGKHAMWPKENDVIFSISGRAQAAEKAFGMDNVINATIGALMDDSGKLITMKTVYEEYKALDNCEIGAYAALEGQPDYLEAVKKVFFRDYLPEGHIRVLASPGGSGAIKLAVWNYTNEGDEVLTSDWFWSPYVSIAEEANRKVVNYQLFDENRRFNFESFKEKFVNIAEKQGRVFTIINTPAHNPTGYSVADDEWDKILDLSKEVAKDKDKKIIFFVDSAYIDFAGDDDVCRKFFKKFSNLPENVLVLVGFSMSKGFTAYGMRMGAIICISSSEDVAEEFHYSCVHSCRANWSNCNRSAMAVLSNIVNDPKKFKEYEDEKEIYKNMLTRRADVFVKEAERVGLEILPYIAGFFVSIPCDNPKEVCEELTKHNLFAVPLKMGLRFAVCAVSEDKCKKAPSIIKEALESLEVKINN | not soluble
2 | MSLSPPGVRLFYDPRGHHAGAINELCWGLEEQGVPCQTITYDGGGDAAALGALAARSSPLRVGIGLSASGEIALTHAQLPADAPLATGHVTDSDDQLRTLGANAGQLVKVLPLSERN | soluble
3 | MLFWLMASLWPMKAGVVYADQTEGAITFVSDEKIEGWATAPGIGNGQGNSIRYFMIRIQPKEQSGTAVSYRAEAVEAPADRNGEKKYTFSLDMRGKWPSAPGTMVTYQITVDAYRVLGNGKEDVYFSFPQTPYQYTRQTEASTAKLDFSLSFSQPEYAKPPNGDAQGRLDVTLVPQGAVSGIIRPPIDVVFVMDVSGSMTAMKLQSAKSALQAAVNYFKSNYNQNDRFALIPFSDGVREASVVPFGKYSNVASQLDAILNTGNSLTAGGGTNYSAALSLAKSYFTDPTRKKYIIFLTDGMPTVLNAVDTITYREVKQNFWGGYSYTGNRVTDSLSITYELYSDGRTAGIRFTDNKGYSRRFYSDGQDYVNGWRVSWDNGYSFTYSSIEGKIRADATAVAKTLGMNNITLYSIGFGDNDEVDMDYLRSLSATAGGEARQGTTQNLTALFQQFSQLATTPAITGTIRIPLSSFGGNVAVAENGQVWLDENKQNAYISFSIPYQVGQGTPAPVTIPIPVSFKAKGTYTFTAELTYRDVYGQLQPAVTKTVTVTVKDEAPPSFTGTVKLQGLTNDVTGLIKRGATDGDDNRFRATYSLSLVGYVGNATGTISNVSIVQELPDGISVVPDGKVTTYVENGKRYAKWSFTNQMFDYSQLNKLTLSAQWVMQADFAMNSVQLPPASVTFTDSRYGAKTSTLVPPAERIGMTVRLDDFPNFYYEGNGKGTITKHKFSALSDDIVGQANPNSYGLLPLPVKALEYDPNDDGVLLVTYSNGQTGIGVH | not soluble
4 | GSHMTREMRILILGLDGAGKTTILYRLQVGEVVTTIPTIGFNVETVTYKNLKFQVWDLGGLTSIRPYWRCYYSNTDAVIYVVDSCDRDRIGISKSELVAMLEEEELRKAILVVFANKQDMEQAMTSSEMANSLGLPALKDRKWQIFKTSATKGTGLDEAMEWLVETLKSRQ | soluble
5 | MSDRQAALDMALKQIEKQFGKGSIMKLGEQAERKVSTVSSGSLALDVALGVGGYPRGRIIEIYGPESSGKTTVSLHAIAEVQRQGGQAAFIDAEHAMDPVYAQKLGVNIDELLLSQPDTGEQGLEIAEALVRSGAVDIIVIDSVAALVPKAEIEGDMGDSHVGLQARLMSQALRKLSGAINKSKTIAIFINQIREKVGVMFGNPETTPGGRALKFYSTVRLEVRRAEQLKQGNDIVGNKTKVKVVKNKVAPPFRVAEVDIMYGEGISREGEILDMASELDIVQKSGAWYSYNEERLGQGRENSKQFLKENTDLREEIAFFIREHHGISEDSGAEGMEDPNLLD | not soluble
6 | MSLQKLVAIEPVSLVLSAEKALYSFADEVVMYSDIPAGDNEIIARIGDADAVLLSYTSQINRYILERCPNVRYIGMCCSLYSPESANVDIRYANERGITVTGIRDYGDEGVIEYVVSELVRCLHGFGQKPWEGIPREITGLKVGIVGLGKSGGMIADAMKFFGADIAYYARSEKKEAGAKGYRFMPLNELLTWSEVVCCCLNKNTVLLHEAEFKALGNRKILFNTGLSPAWDESSFTRWLEEDNLCFCDTLGALGSTALLTHPHVRCMQVSTGRTRQAFDRLSEKVLANLSEYNGEGHHHHHH | soluble
7 | MGSDKIHHHHHHMSTVHDEMGVMNTTVKFLHSSDLQIGMTRWFLSDEAQARFDDDRIRAIEKMGKIARKNQCEFIVLAGDVFEHNSLEQRTTGRALEALRSLKLPVYLLPGNHDPLTADSLFYRAKDIDGVTILSDTTVHGVAPGVEIIGAPLLHKMATSDLVAEALKDLEPTSNVRIAVGHGQAEARTTDHRADLIDLNTVEAKLADGTIDYLALGDTHSAQPVGTSGKVWFSGAPETTDFHDLDPDRVGGEVNSGKVLIVSASKGDVSVEEVEVGKWTFHALSKEITSGTDVEDFLDTLQAYPDKSRTVIKYGLRGTITLEQNRRLEEGIAGLEDVFASLKPRERTTDLVLEPGEEELANLDATGYAAEVLRELADSVVNGAAPEEDRDALNLLFRLSREV | not soluble
8 | MSLNDFRPNPSLLLETSWEVCNKQGGIYTVLTSRAHEMMKRHDGRIIFIGPLLTEQEDLPTDFENTVPAILEDWHRDAAPSLDLRYVCGSWRTPGSPPVVLVDFEPLHAQKATLYYEMWEHFGIQSDKGYGDYDEASLFGIAAAQTMHSLCEYLCPEDQPAIGIFNEWMLGMGLLYSKRKTPRLKTLFLTHATTTGRSIAGNNKALYAYMPGYNGDQMAAELGVEAKHGIEKAAAHQSDTFATVSELTAKECRQLLERDPMVLPNGFEPNFVPQGEEYERRRAEARKRLLHVAEHLTGKQLPADTLLIATSGRYEYRNKGIDLFIDAASEAGRSGKLRTPTLAFILVPAWVAGARADLQYLLNHPDPTEYKEKPLPYPFLTHWLHDIQEQTISKRLDESAGSAGEVSFIFVPCYLNRKDGIFGLGYYDLLIGMDLTVFPSYYEPWGYTPLESIAFGIPTVTTDLSGFGLWAMQERGSRNDFSTGVAVIKRTDDNYAEAVQAIADLLYRWPAESTDRTACRLAAMQTASHAEWRLFYNRYEEAYSELLSRDEGHHHHHH | soluble
9 | MGSDKIHHHHHHMLTPIPQIQHLFATNRRSARWLQLAFLLMALYYAPFSHAACTTPPSNTVLGPYGSSVVGVNGTPQVVASGSGFRCTGSVLSLASTNTITATIQSDSNPSGTTMRMRRGTTTDYVPYSLCMDSGCGTLYNINSTYTWSRTTFLDILGLFNSTDGTMPIYIRTSIGSNVSAGTYTDTVTIKWDYRLCALGILGLCSYDEGSTTSTLNITMTITNDCQITSAPNISFGTAAFPANFAAVNNNLGVRCTLLGAYTVKLVSTHPDDANWRRMTATVGSTPYYLQYQLYRTGNIAWTETNDYSGAGTGITQNIPYTARINASQASKPEGTYKDTVTINVTIN | not soluble
10 | MLNRFKSWRERGWVPIDAAAYELAWQRLGGSVATHPLVVARLSEFSGIPVRYLAWEQGGEVKAAIATWGRSLALSKDELKRHGKKGLFDLGNAELILPVAEGVQVPVRHRARYVSALNEGRISTLKSQTESLAMARTPEELSKKFRYNQRRELRLLEEAGGTVRPVSEFSSAELASMYCDLFQRRWGFEATGARDKAQVIELLRDLLIGSVVFLNDAPIAIQLVYRVEAPQWVSIEYVNGGVDPETRDFSPGSVLSFVNTQSAWEDARALGKALRFSFGRADREYKDRWCNPVPVFQL | not soluble
11 | MVSEAEFMAALAKFAETSATASAAADRVIAVANVDASRIADEFNALLGWAMKIATLLLEEISKNPSLKAEMAESHQMLFGNLGTIVPALLKFGPYINQILGNFGLSLGKLFGIVLAF | not soluble
12 | AQPGAEVLAIDGITVKDTRGIETVRDLSLSVKAGEIVGIAGVDGNGQSELIEAVTGLRKTDSGTITLNGKQIQNLTPRKITESGIGHIPQDRHKHGLVLDFPIGENILLQSYYKKPYSALGVLHKGEMYKKARSLITEYDVRTPDEYTHARALSGGNQQKAIIGREIDRNPDLLIAAQPTRGLDVGAIEFVHKKLIEQRDAGKAVLLLSFELEEIMNLSDRIAVIFEGRIIASVNPQETTEQELGLLMAGSTQKEAGKANG | not soluble
